Assay results taken from article PMC9391306.
Read-outs that look alike come from different tables or passages of the source.

Columns and labels:
[1] = target: PARP1 Zn1;PARP1 Zn3;PARP1 WGR-HD (Homo sapiens?;Homo sapiens?;Homo …, UniProt P09874;P09874;P09874 1-96;216-366;527-786, ||del663-676); assay: X-ray crystallography
[2] = target: T1, PARP1 Zn1-Zn3 (linked);PARP1 WGR-HD (Homo sapiens?;Homo sapiens?, UniProt P09874;P09874 1-366;527-786, del97-206|del663-676); assay: X-ray crystallography
[3] = target: PARP1 Zn1-Zn3 (linked);PARP1 WGR-CAT ΔVE (Homo sapiens?;Homo sapiens?, UniProt P09874;P09874 1-366;518-1014, del97-206|del687-688); assay: X-ray crystallography
PARP1 G558L [4] = target: T2, PARP1 G558L (UniProt P09874 1-1014, G558L); assay: fluorescence polarization
PARP1 L698A/L701A [5] = target: T3, PARP1 L698A/L701A (UniProt P09874 1-1014, L698A;L701A); assay: fluorescence polarization
PARP1 M686G/V687P [6] = target: T4, PARP1 M686G/V687P (UniProt P09874 1-1014, M686G;V687P); assay: fluorescence polarization
PARP1 L713F [7] = target: T5, PARP1 L713F (UniProt P09874 1-1014, L713F); assay: fluorescence polarization
PARP1 G558E = PARP1 G558E (UniProt P09874 1-1014, G558E); assay: fluorescence polarization
PARP1 V687A/E688A [8] = target: T6, PARP1 V687A/E688A (UniProt P09874 1-1014, V687A;E688A); assay: fluorescence polarization
PARP1 G558V [9] = target: T7, PARP1 G558V (UniProt P09874 1-1014, G558V); assay: fluorescence polarization
PARP1 WT [10] = target: T8, PARP1 WT (UniProt P09874 1-1014); assay: fluorescence polarization
PARP1 ΔV687-E688 (ΔVE) [11] = target: T9, PARP1 ΔV687-E688 (ΔVE) (UniProt P09874 1-1014, del687-688); assay: fluorescence polarization
PARP1 ΔART [12] = target: T10, PARP1 ΔART (UniProt P09874 1-786); assay: fluorescence polarization
PARP1 G558L [13] = target: T2, PARP1 G558L; assay: fluorescence polarization; remark: listed apart in the source
PARP1 L698A/L701A [14] = target: T3, PARP1 L698A/L701A; assay: fluorescence polarization; remark: listed apart in the source
PARP1 M686G/V687P [15] = target: T4, PARP1 M686G/V687P; assay: fluorescence polarization; remark: listed apart in the source
PARP1 L713F [16] = target: T5, PARP1 L713F; assay: fluorescence polarization; remark: listed apart in the source
PARP1 Y569A = PARP1 Y569A (UniProt P09874 1-1014, Y569A); assay: fluorescence polarization
PARP1 V687A/E688A [17] = target: T6, PARP1 V687A/E688A; assay: fluorescence polarization; remark: listed apart in the source
PARP1 G558V [18] = target: T7, PARP1 G558V; assay: fluorescence polarization; remark: listed apart in the source
PARP1 WT [19] = target: T8, PARP1 WT; assay: fluorescence polarization; remark: listed apart in the source
PARP1 ΔV687-E688 (ΔVE) [20] = target: T9, PARP1 ΔV687-E688 (ΔVE); assay: fluorescence polarization; remark: listed apart in the source
PARP1 ΔART [21] = target: T10, PARP1 ΔART; assay: fluorescence polarization; remark: listed apart in the source
PARP1 Y569L = PARP1 Y569L (UniProt P09874 1-1014, Y569L); assay: fluorescence polarization
PARP1 WGR-CAT = PARP1 WGR-CAT (UniProt P09874 518-1014); assay: fluorescence polarization
PARP1 WGR-HD = PARP1 WGR-HD (UniProt P09874 527-786, del663-676); assay: fluorescence polarization
[22] = target: T1, PARP1 Zn1-Zn3 (linked);PARP1 WGR-HD; assay: fluorescence polarization

B1: 12-bp palindromic duplex (dsDNA)
DNA 1: ATGCGGCCGCAT
DNA 2: ATGCGGCCGCAT
binding result [1]: binds

B2: 10-bp palindromic duplex (dsDNA)
DNA 1: GCCTGCAGGC
DNA 2: GCCTGCAGGC
binding result [2]: binds

B3: 5-bp duplex (dsDNA)
DNA 1: CGACG
DNA 2: CGTCG
binding result [3]: binds

B4: 18-bp DSB duplex (dsDNA)
DNA 1: GGGTTGCGGCCGCTTGGG
DNA 2: CCCAAGCGGCCGCAACCC
Kd (PARP1 G558L [4]): 57.2 ± 5.8 nM | Kd (PARP1 L698A/L701A [5]): 64.4 ± 13.4 nM | Kd (PARP1 M686G/V687P [6]): 7.3 ± 2.3 nM | Kd (PARP1 L713F [7]): 21.3 ± 3.5 nM | Kd (PARP1 G558E): 118 ± 23.2 nM | Kd (PARP1 V687A/E688A [8]): 71.2 ± 10.7 nM | Kd (PARP1 G558V [9]): 66.7 ± 7.4 nM | Kd (PARP1 WT [10]): 59.7 ± 9.2 nM | Kd (PARP1 ΔV687-E688 (ΔVE) [11]): 9.4 ± 1.3 nM | Kd (PARP1 ΔART [12]): 12.1 ± 4.6 nM | Kd (PARP1 G558L [13]): 7.6 ± 1.2 nM | Kd (PARP1 L698A/L701A [14]): 15.3 ± 7.8 nM | Kd (PARP1 M686G/V687P [15]): 4.8 ± 1.4 nM | Kd (PARP1 L713F [16]): 6.2 ± 3.1 nM | Kd (PARP1 Y569A): 20.6 ± 1.4 nM | Kd (PARP1 V687A/E688A [17]): 10.3 ± 3.6 nM | Kd (PARP1 G558V [18]): 10.2 ± 1.5 nM | Kd (PARP1 WT [19]): 8.4 ± 1 nM | Kd (PARP1 ΔV687-E688 (ΔVE) [20]): 8 ± 1.9 nM | Kd (PARP1 ΔART [21]): 15.4 ± 1.8 nM | Kd (PARP1 Y569L): 40.8 ± 2.1 nM | binding result (PARP1 WGR-CAT): no binding | binding result (PARP1 WGR-HD): no binding | Kd [22]: 7 ± 2.4 nM
